The values below come from patent US20190367631A1 (Regeneron, published 2019).

By Kd is commonly meant the equilibrium constant for the complex coming apart. A word on the koff: it is the first-order rate constant of dissociation. Broadly, the kon is the rate constant with which the complex forms. One may read the t½ as the time in which the quantity being followed falls by half.

In test [1] the target is T1, mouse MSR1 extracellular domain expressed with a N-terminal nonahistidine tag (His9-mMSR1); R&D Systems, Cat … (mouse, UniProt P30204 79-458).
T1 construct: extracellular domain; not shown: N-terminal nonahistidine tag
T1 sequence (looked up): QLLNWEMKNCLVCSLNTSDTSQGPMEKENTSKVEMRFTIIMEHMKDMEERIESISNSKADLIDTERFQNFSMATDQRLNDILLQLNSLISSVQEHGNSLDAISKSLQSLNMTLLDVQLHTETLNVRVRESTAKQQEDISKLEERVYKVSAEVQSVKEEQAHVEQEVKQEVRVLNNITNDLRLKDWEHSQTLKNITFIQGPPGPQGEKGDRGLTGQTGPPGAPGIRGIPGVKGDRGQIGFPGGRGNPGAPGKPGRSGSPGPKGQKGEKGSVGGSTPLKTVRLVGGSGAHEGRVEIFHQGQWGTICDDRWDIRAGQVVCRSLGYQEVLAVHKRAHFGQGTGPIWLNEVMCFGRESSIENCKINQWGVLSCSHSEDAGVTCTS
The test can be described thus: BLI Octet, 25 C, antibody captured.

Test [2] has as its target T2, human MSR1 extracellular domain expressed with a N-terminal nonahistidine tag (His9-hMSR1); R&D Systems, Cat … (human, UniProt P21757 77-451).
T2 construct: extracellular domain; also called His-hMSR1; 9xHis-hMSR1; not shown: N-terminal nonahistidine tag
T2 sequence (looked up): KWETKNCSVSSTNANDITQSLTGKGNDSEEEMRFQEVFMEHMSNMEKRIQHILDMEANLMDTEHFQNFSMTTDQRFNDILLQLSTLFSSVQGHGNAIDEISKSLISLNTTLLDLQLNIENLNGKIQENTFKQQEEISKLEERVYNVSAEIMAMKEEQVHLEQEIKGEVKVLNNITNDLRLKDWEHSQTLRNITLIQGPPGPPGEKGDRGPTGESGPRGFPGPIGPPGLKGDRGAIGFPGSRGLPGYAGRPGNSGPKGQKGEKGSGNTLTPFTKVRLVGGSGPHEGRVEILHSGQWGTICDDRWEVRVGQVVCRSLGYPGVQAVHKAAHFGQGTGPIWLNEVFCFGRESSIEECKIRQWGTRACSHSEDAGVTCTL
The test is described as follows: SPR Biacore, 25 C, antibody captured.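 Note: rates from 1:1 fit with mass transport limitation of real-time sensorgrams, HEPES-buffered saline with EDTA and Tween-20 at pH 7.4, KD and t½ derived from the kinetic rates.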 For orientation: SPR reads the build-up and loss of mass on a sensor chip optically.

Test [3] has as its target T3, monkey MSR1 extracellular domain expressed with a N-terminal hexahistidine-myc-myc tag (HMM-mfMSR1) (monkey (Macaca fascicularis)).
T3 chain: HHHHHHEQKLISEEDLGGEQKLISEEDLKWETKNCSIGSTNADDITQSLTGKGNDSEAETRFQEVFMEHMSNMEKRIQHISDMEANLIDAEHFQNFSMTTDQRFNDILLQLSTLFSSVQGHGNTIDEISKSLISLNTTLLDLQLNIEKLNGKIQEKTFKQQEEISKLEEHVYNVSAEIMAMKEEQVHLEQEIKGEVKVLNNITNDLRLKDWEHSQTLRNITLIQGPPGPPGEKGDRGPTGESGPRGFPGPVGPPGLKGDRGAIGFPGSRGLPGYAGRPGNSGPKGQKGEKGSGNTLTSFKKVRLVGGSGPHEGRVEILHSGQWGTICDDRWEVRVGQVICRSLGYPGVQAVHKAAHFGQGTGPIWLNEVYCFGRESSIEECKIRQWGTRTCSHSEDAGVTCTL
The test is described as follows: SPR Biacore, 25 C, antibody captured.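 Note: rates from 1:1 fit with mass transport limitation of real-time sensorgrams, HEPES-buffered saline with EDTA and Tween-20 at pH 7.4, KD and t½ derived from the kinetic rates.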
Procedure: Binding affinities and kinetic constants of human anti-MSR1 antibodies for different MSR1 reagents were determined by real-time surface plasmon resonance (Biacore 4000). All binding studies were performed in 10 mM HEPES, 150 mM NaCl, 3 mM EDTA, and 0.05% v/v Surfactant Tween-20, pH 7.4 (HBS-ET) running buffer at 25° C. and 37° C.
The association rate (kₐ) and dissociation rate (kd) were determined by fitting the real-time binding sensorgrams to a 1:1 binding model with mass transport limitation using Scrubber 2.0c curve-fitting software. Binding dissociation equilibrium constant (KD) and dissociative half-life (t½) were calculated from the kinetic rates as:

Test [4] concerns the target T2, human MSR1 extracellular domain …. The test can be described thus: SPR Biacore, 37 C, antibody captured.
Test [5] concerns the target T3, monkey MSR1 extracellular domain …. The test can be described thus: SPR Biacore, 37 C, antibody captured.
In test [6] the target is T4, human MSR1 extracellular domain expressed with a N-terminal nonahistidine tag (human, UniProt P21757 77-451).
T4 construct: extracellular domain; also called His9-hMSR1; His-hMSR1
T4 sequence: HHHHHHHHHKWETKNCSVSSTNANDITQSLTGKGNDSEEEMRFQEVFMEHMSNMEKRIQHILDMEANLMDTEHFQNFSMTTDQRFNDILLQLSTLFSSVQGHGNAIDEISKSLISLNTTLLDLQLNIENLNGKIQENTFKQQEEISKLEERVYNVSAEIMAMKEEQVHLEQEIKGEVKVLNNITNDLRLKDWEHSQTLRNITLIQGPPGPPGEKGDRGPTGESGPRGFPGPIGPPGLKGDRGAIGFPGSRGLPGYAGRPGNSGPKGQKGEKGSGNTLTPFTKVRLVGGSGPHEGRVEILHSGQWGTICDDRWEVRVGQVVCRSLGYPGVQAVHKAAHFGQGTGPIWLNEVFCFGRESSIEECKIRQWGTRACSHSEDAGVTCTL
The test can be described thus: competition ELISA, plate-coated His9-hMSR1; 1 µM antibody, competitor ligand 10 nM Ox-LDL. In general terms: In an ELISA, binding on a coated surface is turned into a signal by an enzyme label.
Procedure: (§1) Buffer alone was also added to wells on each coat. […] This assay was conducted in four different assay runs.
(§2) Data analysis was performed using a sigmoidal dose-response model within Prism™ software (GraphPad).

The target in test [7] is T4, human MSR1 extracellular domain …. The test is described as follows: competition ELISA, plate-coated His9-hMSR1; 300 nM antibody, competitor ligand biot-AGE-BSA.
Procedure: as §1, §2
For test [8] the target is unchanged. The test can be described thus: competition ELISA, plate-coated His9-hMSR1; 100 nM antibody, competitor ligand Ac-LDL.
Procedure: as §1, §2

B1: H1H27762P-N297Q (antibody, V domains shown)
VH: QVQLVQSGAEVKKPGSSVKVSCKASGGTFSRYDISWVRQAPGQGLEWMGGIIPIFGTSNYAQKFQGRVTITTDESTSTVYMELSSLRSEDTAVYYCARGGRYGWFDPWGQGTLVTVSS
VL: not shown
notes: Human IgG1 Fc with N297Q; tied by the numerical identifier; also called H1H27762P2-N297Q; H1H27762P2
Consider B1, for which the binding result in test [1] is given as “no binding (tested: 50 nM)”. Also, the Kd in test [2] was determined as 1.85 nM; in test [3], 1.59 nM; in test [4], 0.64 nM; in test [5] it was 0.698 nM. Besides, the off-rate (koff) in test [2] was found to be 0.00183 s⁻¹; in test [3], 0.00199 s⁻¹; in test [4], 0.00196 s⁻¹; in test [5] it was 0.00197 s⁻¹. Besides, the kon is 989000 M⁻¹ s⁻¹ in test [2], 1.25e+06 M⁻¹ s⁻¹ in test [3], 3.06e+06 M⁻¹ s⁻¹ in test [4] and 2.82e+06 M⁻¹ s⁻¹ in test [5]. Besides, the t½ in test [2], in test [3], in test [4] and in test [5] was 6 min each time.

B2: H1H27773P2-N297Q (antibody, human IgG1, V domains shown)
VH: EVQLVESGGGLVQPGGSLRLSCAASGFTFSSYAMNWVRQAPGKGLEWVSAISGSGDSTYYADSVKGRFTISRDNSRTTLSLQLNSLRAEDTAVYYCAKDRLLWFGELGSPFHYWGQGTLVTVSS
VL: not shown
notes: Human IgG1 Fc with N297Q; also called H1H27773P-N297Q
Regarding B2, the results for the “% Blocking” value in test [6] and in test [7] were 2% and 1%, respectively.

B3: H1H27729P-N297Q (antibody, V domains shown)
VH: QVQLVESGGGLVKPGGSLRLSCAASGFIFSDYYMSWIRQAPGKGLEWVSYISSSGTTIYGDSVKGRFTMSRDNAKNSLYLQMNSLRAEDTAVYYCARNYALFDYWGQGTLVTVSS
VL: DIQMTQSPSSLSASVGDRVTITCQASQDISKYLNWYQQKPGKAPKLLIYYTSNLETGVPSRFSGSGSGTDFTFTISSLQPEDIATYYCHQSDYLPFTFGPGTKVDIKR
notes: Human IgG1 Fc with N297Q
As to B3, the “% Blocking” value came out at 8% in test [8], 36% in test [6] and 15% in test [7].

B4: H1H27759P-N297Q (antibody, V domains shown)
VH: EVQLVESGGGFVQPGGSLRLSCAASGFTFSSYAMSWVRQAPGKGLEWVSAISGTGSNTYYADSVKGRFTISRDNSKNTLYLQMNSLRAEDTAVYYCAKDRVTTVTYYFDYWGQGTLVTVSS
VL: not shown
notes: Human IgG1 Fc with N297Q; tied by the numerical identifier; also called H1H27759P2-N297Q; H1xH27759P2
Turning to B4, the binding result in test [1] is on record as “no binding (tested: 50 nM)”. In addition, in test [2], the Kd was determined as 2.03 nM, the koff came to 0.00122 s⁻¹, the association rate constant (kon) was 599000 M⁻¹ s⁻¹ and the t½ is 9 min. In test [3], this molecule came in with a Kd of 2.2 nM, a koff of 0.000919 s⁻¹, a kon of 417000 M⁻¹ s⁻¹ and a t½ of 13 min. In test [4], this molecule returned a Kd of 2.24 nM, an off-rate constant (koff) of 0.0023 s⁻¹, a kon of 1.03e+06 M⁻¹ s⁻¹ and a t½ of 5 min. In test [5], this molecule came in with a dissociation constant (Kd) of 1.28 nM, an off-rate (koff) of 0.00188 s⁻¹, an on-rate constant (kon) of 1.46e+06 M⁻¹ s⁻¹ and a t½ of 6 min.

B5: H1H27731P-N297Q (antibody, V domains shown)
VH: QLQLQESGPGLVKPSETLSLTCTVSGGSISRISYYWGWIRQPPGKGLEWIGSIYDSGSTYYNPSLKSRVTISIDTSKNQFSLKLSSVTAADTAVYYCVRYSSSSAFAFDYWGQGTLVTVSS
VL: DIQMTQSPSSVSASVGDRVTITCRASQGISSWLAWYQQKPGKAPKLLIYAASSLQSGVPSRFSGSGSGTDFTLTISSLQPEDFATYYCQQANSFPFTFGPGTKVDIKR
notes: Human IgG1 Fc with N297Q
On to B5, for which the “% Blocking” value was -41% in test [8], -1% in test [6] and 4% in test [7].

B6: H1H27736P-N297Q (antibody, V domains shown)
VH: EVQLVESGGGLVQPGGSLRLSCAASGFTFSSYAMSWVRQAPGKGLEWVSSISGSGDSTFYTDSVKGRFTISRDISKNTLYLQMNSLRAEDTAVYYCAKDRLLWFGDLISPFHYWGQGTLVTVSS
VL: EIVLTQSPGTLSLSPGERATLSCRASQSVSNIYLAWYQQKPAQAPRLLIYGASSRATGIPDRFSVSGSGTDFTLTISRLEPEDFAVYYCQQYGSSPRTFGQGTKVEIKR
notes: Human IgG1 Fc with N297Q
As to B6, the results for the “% Blocking” value in test [8], in test [6] and in test [7] were -31%, 3% and -3%, respectively.

B7: H1H27734P-N297Q (antibody, V domains shown)
VH: EVQLVESRGGLVQPGGSLRLSCAASGFTFSSYAMSWVRQAPGKGLEWVSAISGSGGSTFYADSVKGRFTISRDNSKNTVYLQMNSLRAEDTAVYYCAKALVLRFLEWLGDYWGQGTLVTVSS
VL: DIQMTQSPSTLSASVGDRVTITCRASQSISSWLAWFQQKPGKAPKLLIYKASSLESGVPSRFSGSGSGTEFTLTISSLQPDDFATYYCQQYKSYWTFGQGTKVEIKR
notes: Human IgG1 Fc with N297Q
As to B7, the “% Blocking” value in test [8] is -38%; in test [6] it was -15%; in test [7], -4%.

B8: H1H27766P2-N297Q (antibody, V domains shown)
VH: EVQLVESGGGLVQPGGSLRLSCAASGFTFSSFAMSWVRQAPGKELEWVSSISGRGGSTYYADSVRGRFTISRDNSKITLYLQMNSLRAEDTAVYYCAKDIVFRYTSSAYWYFDLWGRGTLVTVSS
VL: not shown
notes: Human IgG1 Fc with N297Q; also called H1H27766P-N297Q
With B8, the “% Blocking” value in test [8] was found to be 52%; in test [6] it was 54%; in test [7], 27%.

B9: H1H27766P-N297Q (antibody, V domains shown)
VH: B8 VH
VL: not shown
notes: Human IgG1 Fc with N297Q; tied by the numerical identifier; also called H1H27766P2-N297Q; H1H27766P2
Regarding B9, the binding result in test [1] is “no binding (tested: 50 nM)”. For the same molecule, the Kd in test [2] was found to be 0.0796 nM; in test [3] it was 0.506 nM; in test [4], 0.227 nM; in test [5] it was 1.72 nM. Also, the dissociation rate constant (koff) in test [2] turned out to be 1.86e-05 s⁻¹; in test [3] it was 7.94e-05 s⁻¹; in test [4] it was 7.72e-05 s⁻¹; in test [5], 0.000589 s⁻¹. Further, the kon came to 234000 M⁻¹ s⁻¹ in test [2], 157000 M⁻¹ s⁻¹ in test [3], 340000 M⁻¹ s⁻¹ in test [4] and 343000 M⁻¹ s⁻¹ in test [5]. In addition, the t½ in test [2] amounted to 620 min; in test [3], 145 min; in test [4] it was 150 min; in test [5], 20 min.

B10: H1H27732P-N297Q (antibody, V domains shown)
VH: QLQLQESGPGLVKPSETLSLTCTVSGGSISSSTYYWGWIRQPPGKGLEWIGSFYYSGSTYYNPSLKSRVTISVGTSKNQFSLKLSSVTAADTAVYFCARGGLLGRPFVIWGQGTMVTVSS
VL: DIQMTQSPSSLSASVGDRVTITCRASQGIRNDLGWYQQKPGKAPKRLIYAASSLQSGVPSRFSGSGSGTEFTLTISSLQPEDFATYYCLQHNSYPLTFGGGTKVEIKR
notes: Human IgG1 Fc with N297Q
On to B10, for which the “% Blocking” value in test [8] is -61%; in test [6], -60%; in test [7] it was -9%.
